Source: paper PMC10806181
pKd: −log10 of the molar value. Read-outs that look alike come from different tables or passages of the source.

Assays:
[1] = molecular target: Sho-Stl, enzymatically biotinylated on a C-terminal Avi-tag (Staphylococcus hominis); experiment: BLI
[2] = molecular target: Stl master repressor of the Staphylococcus aureus SaPIbov1 pathogenicity island (Staphylococcus aureus (SaPIbov1)); experiment: BLI; dimer to monomers; KDIM estimated by probing dimerization constants until the ka values of the two BLI set-ups (Stl or human dUTPase on the sensor) were close to equal
[3] = molecular target: human dUTPase, enzymatically biotinylated on an N-terminal Avi-tag (human); experiment: BLI
[4] = molecular target: Stl master repressor of the Staphylococcus aureus SaPIbov1 pathogenicity island (Staphylococcus aureus (SaPIbov1)); experiment: BLI + other: steady state dUTPase activity assay; dimer to monomers; rough estimate of KDIM from the BLI KD and the remaining activity of 50 nM human dUTPase at 200 and 300 nM Stl, assuming no competition of substrate binding
[5] = molecular target: Stl repressor of the Staphylococcus hominis ShoCI794_SEPI pathogenicity island (Staphylococcus hominis); experiment: SEC; gelfiltration of Sho-Stl (Fig. S1)
[6] = molecular target: Mycobacterium tuberculosis dUTPase, enzymatically biotinylated on an N-terminal Avi-tag (Mycobacterium tuberculosis) (UniProt P9WNS5); experiment: BLI
[7] = molecular target: Stl repressor of the Staphylococcus hominis ShoCI794_SEPI pathogenicity island (Staphylococcus hominis); experiment: cross-linking; chemical crosslinking of Sho-Stl in solution (Fig. S1)
[8] = molecular target: Stl repressor of the Staphylococcus hominis ShoCI794_SEPI pathogenicity island (Staphylococcus hominis); experiment: BLI + other: steady state dUTPase activity assay; dimer to monomers; rough estimate of KDIM from the BLI KD and the remaining activity of 50 nM human dUTPase at 200 and 300 nM Stl, assuming no competition of substrate binding
[9] = molecular target: Sho-Stl, enzymatically biotinylated on a C-terminal Avi-tag (Staphylococcus hominis); experiment: BLI; remark: listed apart in the source
[10] = molecular target: Sho-Stl-NDY bound to the streptavidin sensor (Staphylococcus hominis); experiment: BLI
[11] = molecular target: Sa-Stl, enzymatically biotinylated on a C-terminal Avi-tag (Staphylococcus aureus (SaPIbov1)); experiment: BLI

Substance: Mycobacterium tuberculosis dUTPase (from UniProt P9WNS5 1-154) (enzyme)
- pKd [1]: 10.89
- koff [1]: 2.9e-07 s⁻¹
- kon [1]: 22000 M⁻¹ s⁻¹

Substance: Stl master repressor of the Staphylococcus aureus SaPIbov1 pathogenicity island (natural protein)
- pKd [2]: 9.92
- pKd [3]: 8.01
- koff [3]: 0.00065 s⁻¹
- kon [3]: 67000 M⁻¹ s⁻¹
- pKd [4]: 12.00

Substance: Stl repressor of the Staphylococcus hominis ShoCI794_SEPI pathogenicity island (natural protein)
- stoichiometry N [5]: 2
- steady state dUTPase enzyme activity of 50 nM human dUTPase at 200 nM and 300 nM Sho-Stl (remaining activity); Sho-Stl does not inhibit the human dUTPase (% remaining activity) (human dUTPase (human)): 100
- pKd [6]: 7.46
- koff [6]: 0.00041 s⁻¹
- kon [6]: 12000 M⁻¹ s⁻¹
- stoichiometry N [7]: 2
- pKd [8]: 12.00

Substance: human dUTPase (enzyme)
- koff [9]: 0.00025 s⁻¹
- pKd [1]: 8.34
- koff [1]: 0.00023 s⁻¹
- kon [1]: 52000 M⁻¹ s⁻¹
- pKd [10]: 8.12
- koff [10]: 0.00024 s⁻¹
- kon [10]: 31000 M⁻¹ s⁻¹
- pKd [11]: 9.74
- koff [11]: 0.00027 s⁻¹
- kon [11]: 1.5e+06 M⁻¹ s⁻¹
